Laboratory results taken from PMC4298132.
Square brackets hold non-standard residues; d marks the D form. Ends that are not written are not given here. pS = N[C@@H](COP(=O)(O)O)C(=O)O

Tests used:
[1] = biological target: His-SUMO-tagged MLL3 SET domain (UniProt Q8NEZ4); assay: pull-down
Ash2L SPRY domain [2] = biological target: Ash2L SPRY domain (UniProt Q9UBL3); assay: isothermal titration calorimetry; settings: reference: unmodified RbBP5 344-357 peptide; sites S350
Ash2L SPRY domain [3] = assay: ITC

Chain of UniProt Q8NEZ4 (Q8NEZ4 4771-4887): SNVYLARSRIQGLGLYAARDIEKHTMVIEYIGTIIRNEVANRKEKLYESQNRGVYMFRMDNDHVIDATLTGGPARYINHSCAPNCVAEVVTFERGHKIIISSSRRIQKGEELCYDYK
Chain of UniProt Q9UBL3 (Q9UBL3 380-598): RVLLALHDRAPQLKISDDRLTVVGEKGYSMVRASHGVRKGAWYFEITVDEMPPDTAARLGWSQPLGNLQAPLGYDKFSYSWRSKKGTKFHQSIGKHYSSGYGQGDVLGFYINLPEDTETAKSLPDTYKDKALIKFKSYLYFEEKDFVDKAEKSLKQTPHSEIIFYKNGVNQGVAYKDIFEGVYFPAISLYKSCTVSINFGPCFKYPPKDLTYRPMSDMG
Chain of RbBP5 344-357 (Q15291 whole entry, looked up, change not shown, the tested form may be a part): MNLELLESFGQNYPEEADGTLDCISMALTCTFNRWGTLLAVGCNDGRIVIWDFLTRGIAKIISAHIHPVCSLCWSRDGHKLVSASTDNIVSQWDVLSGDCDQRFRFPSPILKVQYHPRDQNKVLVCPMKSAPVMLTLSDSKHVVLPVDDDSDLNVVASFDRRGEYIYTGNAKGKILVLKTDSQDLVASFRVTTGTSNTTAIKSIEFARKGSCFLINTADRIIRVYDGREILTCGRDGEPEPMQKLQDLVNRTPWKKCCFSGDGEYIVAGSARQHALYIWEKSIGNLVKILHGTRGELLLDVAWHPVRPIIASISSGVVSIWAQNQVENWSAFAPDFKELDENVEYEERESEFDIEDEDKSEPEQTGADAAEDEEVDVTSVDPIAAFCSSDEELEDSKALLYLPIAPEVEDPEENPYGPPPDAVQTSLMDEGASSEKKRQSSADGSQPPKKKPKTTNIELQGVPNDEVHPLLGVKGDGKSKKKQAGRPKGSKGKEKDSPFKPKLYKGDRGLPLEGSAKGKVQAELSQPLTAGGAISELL

“Ash2L/RbBP5^phos heterodimer (from UniProt Q9UBL3 1-628; Q15291 1-538) (complex)” gave a fold increase in binding against Ash2L/RbBP5 [1] of 5 fold.

In the case of “RbBP5 344-357 (from UniProt Q15291) pS350 RbBP5 344-357 peptide”, the fold change (Ash2L SPRY domain [2]) is reported as “stronger”.

EYEERE[pS]EFDIEDE [phosphorylated peptide RbBP5 344-357 (phospho-S350), Q15291 344-357] showed a fold higher affinity against the unmodified peptide (Ash2L SPRY domain [3]) of 15 fold.
